Numbering of substitutions follows the chain as printed. Names and notes keep the numbering of the source.

Data set [1] deals with the molecule itself. Kind of data set: cryo-EM structure; heteromeric GlyR in 0.06% digitonin, 20 mM Tris-HCl pH 8.0, 200 mM NaCl, 2 mM glycine.
The target of data set [2] is human glycine receptor β subunit, βem construct (human). Kind of data set: cryo-EM structure; heteromeric GlyR reconstituted in saposin nanodisc with brain polar lipids extract, 20 mM Tris-HCl pH 8.0, 200 mM NaCl, 2 mM glycine.
human glycine receptor β subunit, βem construct (human), sequence (P48167 whole entry): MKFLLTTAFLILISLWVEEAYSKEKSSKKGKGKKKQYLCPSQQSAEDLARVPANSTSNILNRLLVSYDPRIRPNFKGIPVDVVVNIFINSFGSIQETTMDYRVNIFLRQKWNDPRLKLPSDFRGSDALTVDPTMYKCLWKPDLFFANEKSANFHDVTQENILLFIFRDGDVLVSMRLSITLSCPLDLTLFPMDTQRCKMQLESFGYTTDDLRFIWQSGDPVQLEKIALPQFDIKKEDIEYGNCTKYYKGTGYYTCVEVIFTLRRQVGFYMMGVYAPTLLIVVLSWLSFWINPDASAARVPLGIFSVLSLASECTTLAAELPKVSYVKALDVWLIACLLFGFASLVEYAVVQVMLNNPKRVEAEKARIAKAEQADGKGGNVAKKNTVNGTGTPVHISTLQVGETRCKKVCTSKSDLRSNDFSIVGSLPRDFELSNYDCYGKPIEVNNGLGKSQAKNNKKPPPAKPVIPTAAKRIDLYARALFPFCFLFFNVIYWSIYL
Data set [3] has the same target. The data set can be described thus: cryo-EM structure; heteromeric GlyR in 0.06% digitonin, 20 mM Tris-HCl pH 8.0, 200 mM NaCl, 2 mM glycine.
Data set [4] has the same target. The data set can be described thus: cryo-EM structure; heteromeric GlyR in 0.06% digitonin, 2 mM glycine, with 500 μM 2, 6-DTBP throughout the purification and another 500 μM added before grid freezing.
Data set [5] concerns the molecule itself. Kind of data set: FRET or BRET; TIRF-based single-molecule FRET between LD555 and LD655 at C358 of different α3 subunits; labelled GlyR (0.7 nM) held on NeutrAvidin/biotin anti-GFP antibody-coated glass by the GFP in β; 50 mM HEPES-NaOH pH 7.4, 150 mM NaCl, 10 mM MgCl2, 22 °C; apo, with 2 mM glycine, with 2 mM glycine and 500 μM 2, 6-DTBP. On the technique in general: Bioluminescence resonance energy transfer reports proximity on the nanometre scale.

B1: human glycine receptor α3 subunit, α3em construct (receptor, UniProt O75311-1 34-464, looked up)
chain: ARSRSAPMSPSDFLDKLMGRTSGYDARIRPNFKGPPVNVTCNIFINSFGSIAETTMDYRVNIFLRQKWNDPRLAYSEYPDDSLDLDPSMLDSIWKPDLFFANEKGANFHEVTTDNKLLRIFKNGNVLYSIRLTLTLSCPMDLKNFPMDVQTCIMQLESFGYTMNDLIFEWQDEAPVQVAEGLTLPQFLLKEEKDLRYCTKHYNTGKFTCIEVRFHLERQMGYYLIQMYIPSLLIVILSWVSFWINMDAAPARVALGITTVLTMTTQSSGSRASLPKVSYVKAIDIWMAVCLLFVFSALLEYAAVNFVSRQHKELLRFRRKRKNKTEAFDMDDEVRESRFSFTAYGMGPCLQAKDGMTPKGPNHPVQVMPKSPDEMRKVFIDRAKKIDTISRACFPLAFLIFNIFYWVIYKILRHEDIHQQQD
notes: glycine receptor α3 subunit, human, NCBI NP_006520.2; 9 residues of the M3/M4 loop (A329-S337) deleted; the model description counts 422 aa in all, from A1 to D431; Four copies of this subunit stand with one β subunit in the pentamer; also called GlyR α3
One may read the stoichiometry N as the number of molecules, sites or subunits per partner or assembly. With B1, the binding result in data set [1] was “binds”. The stoichiometry N in data set [2] and in data set [3] was 4 α3 per β in each case.

B2: human glycine receptor α3 subunit, α3S346Eem construct (phosphorylation mimic) (receptor, UniProt O75311-1 34-464, looked up)
chain: B1 chain with S337E
notes: glycine receptor α3 subunit, human, NCBI NP_006520.2; α3em (A329-S337 deleted) with S346E; the model description counts 422 aa in all, from A1 to D431; Four copies of this subunit stand with one β subunit in the pentamer; also called α3emS346E
In the case of B2, the binding result in data set [1] is “binds”. Also, the stoichiometry N in data set [3] and in data set [4] was 4 α3 per β throughout.

B3: human glycine receptor α3 subunit, α3S346E_(FRET) construct (receptor, UniProt O75311-1 34-464, looked up)
chain: B1 chain with C41V, S337E
modifications: cysteine-reactive dye (LD555-MAL or LD655-MAL) at C358
notes: glycine receptor α3 subunit, human, NCBI NP_006520.2; α3S346Eem (A329-S337 deleted, S346E) with C41V and an A1 tag inserted between S380 and P381; Stood in the smFRET assay as part of the α3_(FRET)S346Eβ_(FRET) pentamer, which was held on the glass by the GFP in β_(FRET) (βem with C115S); also called α3_(FRET)S346E
B3: the binding result in data set [5] is on record as “binds”.

B4: human glycine receptor α3 subunit, α3_(FRET) construct (receptor, UniProt O75311-1 34-464, looked up)
chain: B1 chain with C41V
modifications: cysteine-reactive dye (LD555-MAL or LD655-MAL) at C358
notes: glycine receptor α3 subunit, human, NCBI NP_006520.2; α3em (A329-S337 deleted) with C41V and an A1 tag inserted between S380 and P381; Stood in the smFRET assay as part of the α3_(FRET)β_(FRET) pentamer, which was held on the glass by the GFP in β_(FRET) (βem with C115S); also called α_(FRET)
As to B4, the binding result in data set [5] is “binds”.
